Results as given in EP1167527A9 (Euroscreen S.A., dated 2002).

Columns and labels:
chemokine receptor CCR1 [1] = target: T1, chemokine receptor CCR1 (human, UniProt P32246 1-355); assay: radioligand competition, 125I-Rantes tracer, CCR1
T1 construct: whole, on cells
T1 sequence (looked up): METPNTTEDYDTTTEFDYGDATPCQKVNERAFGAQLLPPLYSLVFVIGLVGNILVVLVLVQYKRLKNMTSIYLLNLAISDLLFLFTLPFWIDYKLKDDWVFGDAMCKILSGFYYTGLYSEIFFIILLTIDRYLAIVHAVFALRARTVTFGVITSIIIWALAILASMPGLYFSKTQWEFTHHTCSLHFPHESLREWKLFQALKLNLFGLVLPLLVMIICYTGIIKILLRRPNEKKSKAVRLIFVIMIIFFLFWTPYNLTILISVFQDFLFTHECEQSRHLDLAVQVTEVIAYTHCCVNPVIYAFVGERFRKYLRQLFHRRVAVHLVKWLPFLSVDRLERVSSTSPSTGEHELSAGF

[2] = target: T2, chemokine receptor 5 (CCR5; AC P51681) (human, UniProt P51681 1-352); assay: radioligand competition, 125I-MIP 1-alpha tracer, CCR5
T2 construct: whole, on cells
T2 sequence (P51681 whole entry, one chain of several): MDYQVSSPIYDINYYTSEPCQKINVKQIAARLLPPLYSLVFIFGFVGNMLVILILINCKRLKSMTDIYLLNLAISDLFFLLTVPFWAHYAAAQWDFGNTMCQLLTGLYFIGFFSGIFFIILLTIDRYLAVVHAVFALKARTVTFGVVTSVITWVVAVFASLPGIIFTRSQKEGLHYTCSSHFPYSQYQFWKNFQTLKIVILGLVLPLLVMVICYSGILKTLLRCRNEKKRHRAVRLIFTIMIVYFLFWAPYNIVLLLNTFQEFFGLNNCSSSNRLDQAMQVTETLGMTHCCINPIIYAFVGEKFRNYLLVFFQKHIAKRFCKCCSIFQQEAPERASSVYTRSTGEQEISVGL

chemokine receptor CCR3 [3] = target: T3, chemokine receptor CCR3 (human, UniProt P51677 1-355); assay: cell-based or functional assay
T3 sequence (looked up): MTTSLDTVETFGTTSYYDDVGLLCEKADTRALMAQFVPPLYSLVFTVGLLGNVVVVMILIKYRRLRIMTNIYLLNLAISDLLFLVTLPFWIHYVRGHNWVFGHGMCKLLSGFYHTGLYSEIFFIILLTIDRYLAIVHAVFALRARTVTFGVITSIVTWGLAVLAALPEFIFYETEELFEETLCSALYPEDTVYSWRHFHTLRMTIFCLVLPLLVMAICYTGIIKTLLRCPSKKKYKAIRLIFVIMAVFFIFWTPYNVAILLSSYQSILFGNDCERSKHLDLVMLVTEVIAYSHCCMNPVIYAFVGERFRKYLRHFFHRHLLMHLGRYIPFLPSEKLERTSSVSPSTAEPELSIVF

[4] = target: T2, chemokine receptor 5 (CCR5; AC P51681); assay: cell-based or functional assay
chemokine receptor CCR1 [5] = target: T1, chemokine receptor CCR1; assay: cell-based or functional assay
[6] = target: T2, chemokine receptor 5 (CCR5; AC P51681); assay: radioligand competition, 0.1 nM 125I-MIP 1-alpha tracer, crude membranes of CHO-K1 cells expressing CCR5
chemokine receptor CCR3 [7] = target: T3, chemokine receptor CCR3; assay: radioligand competition, 125I-Eotaxin tracer, CCR3
chemokine receptor CCR3 [8] = target: T3, chemokine receptor CCR3; assay: radioligand competition, 0.1 nM 125I-Eotaxin tracer, crude membranes of CHO-K1 cells expressing CCR3
chemokine receptor CCR1 [9] = target: T1, chemokine receptor CCR1; assay: radioligand competition, 0.1 nM 125I-Rantes tracer, crude membranes of CHO-K1 cells expressing CCR1
chemokine receptor CCR1 [10] = target: T1, chemokine receptor CCR1; assay: radioligand competition binding, CCR1

B1: processed human chemokine PHC-1 (ligand)
chain: GPYHPSECCFTYTTYKIPRQRIMDYYETNSQCSKPGIVFITKRGHSVCTNPSDKWVQDYIKDMKEN
notes: Purified from human hemofiltrate or made by tryptic digestion of HCC-1 (1-74); also called HCC-1[9-74]; HCC-1, residues 9-74
Chemokine receptor CCR1 [1]
  Ki: 0.023 nM
[2]
  Ki: 0.04 nM
Chemokine receptor CCR3 [3]
  functional aequorin-based assay, EC50: 78 nM
[4]
  aequorin assay (intracellular calcium), CHO-K1 cells expressing CCR5, EC50: 4.8 nM
Chemokine receptor CCR1 [5]
  functional aequorin-based assay, EC50: 2.8 nM
[6]
  IC50: 0.04 nM
Chemokine receptor CCR3 [7]
  Ki: 2.7 nM
Chemokine receptor CCR3 [8]
  IC50: 78 nM
Chemokine receptor CCR1 [9]
  IC50: 2.3 nM

B2: RANTES (ligand, UniProt P13501 24-91, looked up)
chain: SPYSSDTTPCCFAYIARPLPRAHIKEYFYTSGKCSNPAVVFVTRKNRQVCANPEKKWVREYINSLEMS
[4]
  aequorin assay (intracellular calcium), CHO-K1 cells expressing CCR5, EC50: 2.4 nM
Chemokine receptor CCR1 [5]
  functional aequorin-based assay, EC50: 6.3 nM

B3: MIP 1-alpha (ligand, UniProt P10147 24-92, looked up)
chain: SLAADTPTACCFSYTSRQIPQNFIADYFETSSQCSKPGVIFLTKRSRQVCADPSEEWVQKYVSDLELSA
[4]
  aequorin assay (intracellular calcium), CHO-K1 cells expressing CCR5, EC50: 3.3 nM

B4: full size human chemokine HCC-1, amino acid residues 1-74 (ligand)
chain: TKTESSSRGPYHPSECCFTYTTYKIPRQRIMDYYETNSQCSKPGIVFITKRGHSVCTNPSDKWVQDYIKDMKEN
notes: 74-residue chemokine, Mr 8673; Swiss-Prot Q16627 is printed for the HCC-1 precursor; also called full-size HCC-1; full length HCC-1
Chemokine receptor CCR1 [10]
  Ki: 100 nM
